In article PMC2966277 (Cell, 2010):

Legend:
[1] = biological target: T1, GFP-PRC1-FL (GFP-tagged full-length PRC1, aa 1-620) (human), O43663; experiment: single-molecule fluorescence intensity analysis; settings: remark: other sources report otherwise
T1 chain: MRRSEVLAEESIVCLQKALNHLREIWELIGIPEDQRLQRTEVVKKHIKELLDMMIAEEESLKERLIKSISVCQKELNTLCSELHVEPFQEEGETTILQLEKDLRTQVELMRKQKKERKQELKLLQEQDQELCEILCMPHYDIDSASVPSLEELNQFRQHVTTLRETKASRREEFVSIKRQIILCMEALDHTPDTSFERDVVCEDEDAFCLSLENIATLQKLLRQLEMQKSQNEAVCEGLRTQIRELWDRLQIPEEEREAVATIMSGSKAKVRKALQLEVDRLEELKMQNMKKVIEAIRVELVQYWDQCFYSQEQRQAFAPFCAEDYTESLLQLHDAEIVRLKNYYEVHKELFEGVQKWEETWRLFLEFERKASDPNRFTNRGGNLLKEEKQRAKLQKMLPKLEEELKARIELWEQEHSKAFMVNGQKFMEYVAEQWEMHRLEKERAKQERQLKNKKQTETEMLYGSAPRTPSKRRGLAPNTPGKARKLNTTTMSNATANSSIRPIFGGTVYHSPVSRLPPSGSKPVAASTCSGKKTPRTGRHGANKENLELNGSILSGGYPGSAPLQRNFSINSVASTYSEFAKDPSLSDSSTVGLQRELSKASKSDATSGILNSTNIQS

[2] = biological target: T2, PRC1-FL (untagged full-length PRC1) (human), O43663; settings: remark: other sources report otherwise
T2 chain: T1 chain

[3] = biological target: the molecule itself; experiment: SEC-MALS
[4] = biological target: microtubules (UniProt Q6B856 1-445); experiment: co-sedimentation

B1: GFP-PRC1-FL (GFP-tagged full-length PRC1, aa 1-620), O43663 1-620 (natural protein)
chain: T1 chain
[1]
  stoichiometry N: 2

B2: PRC1-FL (untagged full-length PRC1), O43663 1-620 (natural protein)
chain: T1 chain
[2]
  stoichiometry N: 2

B3: PRC1-NSΔC (aa 1-486) (domain or fragment, human, UniProt O43663 1-486, looked up)
chain: MRRSEVLAEESIVCLQKALNHLREIWELIGIPEDQRLQRTEVVKKHIKELLDMMIAEEESLKERLIKSISVCQKELNTLCSELHVEPFQEEGETTILQLEKDLRTQVELMRKQKKERKQELKLLQEQDQELCEILCMPHYDIDSASVPSLEELNQFRQHVTTLRETKASRREEFVSIKRQIILCMEALDHTPDTSFERDVVCEDEDAFCLSLENIATLQKLLRQLEMQKSQNEAVCEGLRTQIRELWDRLQIPEEEREAVATIMSGSKAKVRKALQLEVDRLEELKMQNMKKVIEAIRVELVQYWDQCFYSQEQRQAFAPFCAEDYTESLLQLHDAEIVRLKNYYEVHKELFEGVQKWEETWRLFLEFERKASDPNRFTNRGGNLLKEEKQRAKLQKMLPKLEEELKARIELWEQEHSKAFMVNGQKFMEYVAEQWEMHRLEKERAKQERQLKNKKQTETEMLYGSAPRTPSKRRGLAPNTPGKAR
[3]
  stoichiometry N: 2

B4: PRC1-SC (aa 341-620) (domain or fragment, human, UniProt O43663 341-620, looked up)
chain: LKNYYEVHKELFEGVQKWEETWRLFLEFERKASDPNRFTNRGGNLLKEEKQRAKLQKMLPKLEEELKARIELWEQEHSKAFMVNGQKFMEYVAEQWEMHRLEKERAKQERQLKNKKQTETEMLYGSAPRTPSKRRGLAPNTPGKARKLNTTTMSNATANSSIRPIFGGTVYHSPVSRLPPSGSKPVAASTCSGKKTPRTGRHGANKENLELNGSILSGGYPGSAPLQRNFSINSVASTYSEFAKDPSLSDSSTVGLQRELSKASKSDATSGILNSTNIQS
[4]
  Kd: 600 ± 300 nM

B5: PRC1-S (aa 341-466) (domain or fragment, human, UniProt O43663 341-466, looked up)
chain: LKNYYEVHKELFEGVQKWEETWRLFLEFERKASDPNRFTNRGGNLLKEEKQRAKLQKMLPKLEEELKARIELWEQEHSKAFMVNGQKFMEYVAEQWEMHRLEKERAKQERQLKNKKQTETEMLYGS
[4]
  Kd: 3300 ± 1800 nM
